T1: human CD37 on CD37-positive human cell lines (MEC-1, MEC-2, Raji, Ramos) (human, UniProt P11049 1-281)
T1 sequence: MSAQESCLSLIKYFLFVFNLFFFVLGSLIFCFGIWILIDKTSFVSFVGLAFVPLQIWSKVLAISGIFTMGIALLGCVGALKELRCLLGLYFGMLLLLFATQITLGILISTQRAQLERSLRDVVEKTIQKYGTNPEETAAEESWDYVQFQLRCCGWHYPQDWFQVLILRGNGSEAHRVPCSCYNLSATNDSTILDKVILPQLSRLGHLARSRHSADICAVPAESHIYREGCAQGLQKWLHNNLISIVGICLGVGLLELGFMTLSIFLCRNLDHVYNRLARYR

B1: chHH1-HDP-(XV) (antibody)
heavy: not shown
light: DIVMTQSHKLLSTSVGDRVSITCKASQDVSTAVDWYQQKPGQSPKLLINWASTRHTGVPDRFTGSGSGTDYTLTISSMQAEDLALYYCRQHYSTPFTFGSGTKLEIKRTVAAPSVFIFPPSDEQLKSGTASVVCLLNNFYPREAKVQWKVDNALQSGNSQESVTEQDSKDSTYSLSSTLTLSKADYEKHKVYACEVTHQGLSSPVTKSFNRGEC
modifications: amatoxin-linker moiety of formula (XV), DAR 3.36; cysteine residues carrying it not stated
B2: chHH1-HDP-(XIII) (antibody)
heavy: not shown
light: B1 light
modifications: amatoxin-linker moiety of formula (XIII); DAR printed as '-'; cysteine residues carrying it not stated
B3: chHH1-HDP-D265C-(XII) (antibody)
heavy: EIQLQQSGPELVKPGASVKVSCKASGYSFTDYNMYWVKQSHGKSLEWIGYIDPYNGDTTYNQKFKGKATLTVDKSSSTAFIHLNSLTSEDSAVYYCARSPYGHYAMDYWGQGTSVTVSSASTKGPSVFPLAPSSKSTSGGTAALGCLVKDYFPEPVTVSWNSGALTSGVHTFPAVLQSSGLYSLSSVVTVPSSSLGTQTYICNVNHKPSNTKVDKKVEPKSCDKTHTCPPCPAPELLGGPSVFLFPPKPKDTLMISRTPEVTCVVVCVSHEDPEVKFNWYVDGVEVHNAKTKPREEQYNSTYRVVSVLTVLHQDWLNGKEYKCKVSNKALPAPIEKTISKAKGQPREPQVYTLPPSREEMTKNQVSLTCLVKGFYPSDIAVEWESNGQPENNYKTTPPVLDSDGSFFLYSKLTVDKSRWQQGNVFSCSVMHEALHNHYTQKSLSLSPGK
light: B1 light
modifications: amatoxin-linker moiety of formula (XII) on heavy chain 265Cys (EU numbering); DAR 2.03
B4: conjugate XXVI (antibody)
heavy: EIQLQQSGPELVKPGASVKVSCKASGYSFTDYNMYWVKQSHGKSLEWIGYIDPYNGDTTYNQKFKGKATLTVDKSSSTAFIHLNSLTSEDSAVYYCARSPYGHYAMDYWGQGTSVTVSSASTKGPSVFPLAPSSKSTSGGTAALGCLVKDYFPEPVTVSWNSGALTSGVHTFPAVLQSSGLYSLSSVVTVPSSSLGTQTYICNVNHKPSNTKVDKKVEPKSCDKTHTCPPCPAPEAAGGPSVFLFPPKPKDTLMISRTPEVTCVVVCVSHEDPEVKFNWYVDGVEVHNAKTKPREEQYNSTYRVVSVLTVLHQDWLNGKEYKCKVSNKALPAPIEKTISKAKGQPREPQVYTLPPSREEMTKNQVSLTCLVKGFYPSDIAVEWESNGQPENNYKTTPPVLDSDGSFFLYSKLTVDKSRWQQGNVFSCSVMHEALHNHYTQKSLSLSPGK
light: B1 light
modifications: amatoxin-linker moiety of formula (XV) on heavy chain 265Cys (EU numbering); DAR 3.15
B5: chHH1-HDP-D265C-(XIII) (antibody)
heavy: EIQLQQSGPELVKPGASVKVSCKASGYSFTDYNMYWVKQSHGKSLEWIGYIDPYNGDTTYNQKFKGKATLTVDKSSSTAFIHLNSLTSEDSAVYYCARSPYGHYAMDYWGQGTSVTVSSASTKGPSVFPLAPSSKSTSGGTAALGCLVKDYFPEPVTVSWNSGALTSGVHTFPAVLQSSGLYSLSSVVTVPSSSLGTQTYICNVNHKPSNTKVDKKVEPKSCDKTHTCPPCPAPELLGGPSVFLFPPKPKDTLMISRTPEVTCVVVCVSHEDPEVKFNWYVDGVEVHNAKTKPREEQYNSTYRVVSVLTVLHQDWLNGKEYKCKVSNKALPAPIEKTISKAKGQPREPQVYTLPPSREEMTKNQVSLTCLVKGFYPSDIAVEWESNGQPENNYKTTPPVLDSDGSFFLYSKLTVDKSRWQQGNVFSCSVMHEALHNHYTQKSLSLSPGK
light: B1 light
modifications: amatoxin-linker moiety of formula (XIII) on heavy chain 265Cys (EU numbering); DAR 1.96
B6: chHH1-HDP-D265C-(XV) (antibody)
heavy: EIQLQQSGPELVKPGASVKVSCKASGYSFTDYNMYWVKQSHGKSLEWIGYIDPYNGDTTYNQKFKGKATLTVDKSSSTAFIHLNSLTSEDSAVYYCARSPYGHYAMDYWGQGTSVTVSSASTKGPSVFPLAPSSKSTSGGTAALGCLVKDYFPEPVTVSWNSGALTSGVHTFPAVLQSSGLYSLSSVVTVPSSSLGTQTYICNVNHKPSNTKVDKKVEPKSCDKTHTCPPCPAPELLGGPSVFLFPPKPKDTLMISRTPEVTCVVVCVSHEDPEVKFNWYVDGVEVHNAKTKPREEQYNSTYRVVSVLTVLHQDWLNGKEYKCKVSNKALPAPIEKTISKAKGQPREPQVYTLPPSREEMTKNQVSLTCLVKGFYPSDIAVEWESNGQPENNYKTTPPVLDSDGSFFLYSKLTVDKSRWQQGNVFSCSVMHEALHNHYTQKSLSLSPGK
light: B1 light
modifications: amatoxin-linker moiety of formula (XV) on heavy chain 265Cys (EU numbering); DAR 2.80
B7: conjugate XXIV (antibody)
heavy: B4 heavy
light: B1 light
modifications: amatoxin-linker moiety of formula (XIII) on heavy chain 265Cys (EU numbering); DAR printed as '-'
B8: chHH1-HDP-LALA-D265C (antibody, human IgG1, kappa, L234A L235A)
heavy: B4 heavy
light: B1 light
notes: Unconjugated chimeric antibody; Expressed in CHO or HEK293 cells; also called anti-CD37 monoclonal antibody chHH1-LALA-D265C; anti-CD37 chHH1-HDP-LALA-D265C

Target: T1, human CD37 on CD37-positive human cell …
Assay: cell-based or functional assay

Binder	EC 50 [M], cytotoxicity in vitro on MEC-2 cells	EC 50 [M], cytotoxicity in vitro on Raji cells	EC 50 [M], cytotoxicity in vitro on Ramos cells
B1	6.06e-08 M	6.1e-10 M	8.5e-11 M
B2	5.59e-10 M	4.8e-10 M	5.6e-11 M
B3	2.14e-08 M	3.9e-09 M	2.2e-10 M
B4	7.54e-09 M	2.04e-09 M	3.2e-10 M
B5	5.41e-09 M	6.2e-10 M	1.1e-10 M
B6	1.11e-08 M	1.63e-09 M	4.7e-10 M
B7	1.19e-08 M	7.5e-10 M	8.6e-11 M

Target: T1, human CD37 on CD37-positive human cell …
Assay: flow cytometry (FACS) on MEC-2 cells, median fluorescence against antibody concentration

Binder	EC50 (read off the curve)
B8	~3 µg/mL

Target: T1, human CD37 on CD37-positive human cell …
Assay: flow cytometry (FACS) on Ramos cells, median fluorescence against antibody concentration

Binder	EC50 (read off the curve)
B8	~1 µg/mL

Source: patent publication US20220370632A1 (HEIDELBERG PHARMA RESEARCH, published 2022)
